T1: FcγRIIb (Pichia pastoris produced) (UniProt P31994 43-217, limits assumed)
T1 construct: also called FcgRIIB; CD32B
T1 sequence (looked up): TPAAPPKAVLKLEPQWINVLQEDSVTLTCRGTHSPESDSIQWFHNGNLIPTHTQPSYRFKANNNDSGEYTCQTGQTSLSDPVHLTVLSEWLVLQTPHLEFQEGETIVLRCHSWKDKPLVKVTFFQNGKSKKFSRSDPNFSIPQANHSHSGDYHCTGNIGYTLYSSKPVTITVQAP


Assays:
[1] = target: T1, FcγRIIb (Pichia pastoris produced); experiment: ELISA-type plate assay, FcγR coated, antibody dimerized with AP-conjugated goat anti-human IgG F(ab')2, RFU readout
Protocol: (§1) Fcγ receptor binding assays were carried out as described (Shields, et al. (2001) J. Biol. Chem. 276:6591-6604) with minor modifications. High protein binding 96-well plates (Corning Costar) were coated with 100 μL per well of Fcγ receptor solutions in PBS at the following concentrations: 1 μg/mL for both FcγRI (R&D Systems) and FcγRIIa (Pichia pastoris produced), 2 μg/mL for FcγRIIb (P. pastoris produced), 0.8 μg/mL for FcγRIIIa-F158, and 0.4 μg/mL for FcγRIIIa-V158 (both P. pastoris produced). All Pichia pastoris produced receptors were expressed and purified as described (Li, et al. (2006) Nature Biotechnology 24:210-215). Monomeric antibody samples added to the FcγRI plate were serially diluted in assay diluent (1×PBS, 1% BSA, and 0.05% Tween20) and 100 μL, per well was added to the plate. Antibody samples prepared for the remaining receptors require a one hour dimerization step with half molar ratio of goat anti-human IgG F(ab′)2 F(ab′)2 that is conjugated with alkaline phosphatase for detection. These dimerized F(ab′)2/antibody complexes were also serially diluted and 100 μL per well were added to the remaining receptor plates and all plates were incubated for one hour at room temperature. FcγRI bound sample antibody was detected using the same goat anti-human IgG F(ab′)2 alkaline phosphatase conjugated F(ab′)2. Sample antibody binding was quantified by measuring excitation at 340 nm and emission at 465 nm after 18 hour incubation with SuperPhos, 4-MUP Fluorescence AP Substrate Detection System (Virolabs).

[2] = target: T2, FcγRIIIa-F158 (Pichia pastoris produced) (UniProt P08637 17-208, limits assumed); experiment: as above
T2 construct: also called FcγRIIIA LF; FcgRIIIA LF
T2 sequence (P08637 17-208 limits assumed): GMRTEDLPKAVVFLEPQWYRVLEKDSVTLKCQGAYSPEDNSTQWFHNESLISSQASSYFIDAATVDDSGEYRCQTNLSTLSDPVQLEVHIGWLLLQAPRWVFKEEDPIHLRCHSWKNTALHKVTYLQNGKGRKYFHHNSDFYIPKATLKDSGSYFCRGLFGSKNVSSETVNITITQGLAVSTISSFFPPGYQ
Protocol: as §1

FcγRI (R&D Systems) = target: T3, FcγRI (R&D Systems) (UniProt P12314 16-288); experiment: ELISA-type plate assay, FcγRI coated, monomeric antibody, detected with AP-conjugated goat anti-human IgG F(ab')2, RFU readout
T3 construct: Bought reagent, coated on the plate at 1 µg/mL; also called Fc gamma receptor I; CD64
T3 sequence (P12314 16-288 limits assumed): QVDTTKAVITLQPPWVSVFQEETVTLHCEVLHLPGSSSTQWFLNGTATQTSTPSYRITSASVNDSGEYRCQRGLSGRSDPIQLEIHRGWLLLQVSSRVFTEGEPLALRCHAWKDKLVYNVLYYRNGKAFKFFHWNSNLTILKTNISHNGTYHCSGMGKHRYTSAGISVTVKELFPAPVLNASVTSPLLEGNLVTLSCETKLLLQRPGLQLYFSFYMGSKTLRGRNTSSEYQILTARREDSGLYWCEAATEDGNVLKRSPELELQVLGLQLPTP
Protocol: as §1, with “These dimerized F(ab′)2/antibody complexes were also serially diluted and 100 μL per well were added to the remaining receptor plates and all plates were incubated for one hour at room temperature.” left out

[3] = target: T2, FcγRIIIa-F158 (Pichia pastoris produced); experiment: ELISA on plate-coated receptor; antibody dimerized with anti-human IgG F(ab')2-AP; ELISA IC50, YGLY23258 (dimer), Table 7 experiment
Protocol: as §1, with “These dimerized F(ab′)2/antibody complexes were also serially diluted and 100 μL per well were added to the remaining receptor plates and all plates were incubated for one hour at room temperature.” left out

[4] = target: T4, FcγRIIIa-V158 (Pichia pastoris produced) (UniProt P08637 17-208, limits assumed); experiment: as above
T4 construct: also called FcγRIIIA LV; FcgRIIIA LV
T4 sequence (P08637 17-208 F176V limits assumed): as the sequence (P08637 17-208 limits assumed) above, with F160V counted along it
Protocol: as §1, with “These dimerized F(ab′)2/antibody complexes were also serially diluted and 100 μL per well were added to the remaining receptor plates and all plates were incubated for one hour at room temperature.” left out

[5] = target: T2, FcγRIIIa-F158 (Pichia pastoris produced); experiment: ELISA on plate-coated receptor; antibody dimerized with anti-human IgG F(ab')2-AP; ELISA IC50, YGLY23258 (dimer), Table 6 experiment
Protocol: as §1, with “These dimerized F(ab′)2/antibody complexes were also serially diluted and 100 μL per well were added to the remaining receptor plates and all plates were incubated for one hour at room temperature.” left out

[6] = target: T4, FcγRIIIa-V158 (Pichia pastoris produced); experiment: as above
Protocol: as §1, with “These dimerized F(ab′)2/antibody complexes were also serially diluted and 100 μL per well were added to the remaining receptor plates and all plates were incubated for one hour at room temperature.” left out

EC50 (read off the curve) [1] [µg/mL] | EC50 (read off the curve) [2] [µg/mL] | EC50 (read off the curve) (FcγRI (R&D Systems)) [µg/mL] | IC50 [3] [µg/mL] | IC50 [4] [µg/mL] | IC50 [5] [µg/mL] | IC50 [6] [µg/mL] | Binder
~0.4 | ~0.02 | ~0.08 |  |  |  |  | 1F11 wildtype (parent) humanized anti-PCSK9 monoclonal IgG1 antibody (antibody, Produced in glycoengineered Pichia pastoris GFI5.0 (strain YGLY21351); also called 1F11 IgG1 GS5.0; YGLY21351) heavy: not shown light: DIQMTQSPSSLSASVGDRVTITCKASQNVGTNVVWYQQKPGKAPKALIHSASYRYSGVPSRFSGSGSGTDFTLTISSLQPEDFATYYCQQYKTYPYTFGQGTKVEIKRTVAAPSVFIFPPSDEQLKSGTASVVCLLNNFYPREAKVQWKVDNALQSGNSQESVTEQDSKDSTYSLSSTLTLSKADYEKHKVYACEVTHQGLSSPVTKSFNRGEC
 |  |  | 1.31 | 0.16 | 1.17 | 0.16 | 1F11 IgG1 F243A/V264A double mutein anti-PCSK9 antibody (antibody, sialylated N-glycans; also called 1F11 DM; YGLY23258) heavy: not shown light: DIQMTQSPSSLSASVGDRVTITCKASQNVGTNVVWYQQKPGKAPKALIHSASYRYSGVPSRFSGSGSGTDFTLTISSLQPEDFATYYCQQYKTYPYTFGQGTKVEIKRTVAAPSVFIFPPSDEQLKSGTASVVCLLNNFYPREAKVQWKVDNALQSGNSQESVTEQDSKDSTYSLSSTLTLSKADYEKHKVYACEVTHQGLSSPVTKSFNRGEC

From patent US20140086916A1 (Merck Sharp & Dohme, published 2014)
